Assay results reported in ChEMBL document CHEMBL1250451, “Mechanistic insights into a Ca2+-dependent family of alpha-mannosidases in a human gut symbiont” (Nat Chem Biol, 2010).
Substitutions are numbered along the chain they refer to. Names and notes keep the numbering of the source.

Key:
Type in all cases: protein assay
[1] = substrate: OC[C@H]1O[C@H](O[C@H]2[C@@H](O)[C@H](O)[C@@H](CO)O[C@@H]2O)[C@@H](O)[C@@H](O)[C@@H]1O; experiment: (§1) Activity of Bacteroides thetaiotaomicron GH92 alpha-mannosidase GH92 alpha-mannosidase 3990 assessed as mannose release after 16 hrs by HPLC
[2] = substrate: O=[N+]([O-])c1ccc(O[C@H]2O[C@H](CO)[C@@H](O)[C@H](O)[C@@H]2O)cc1; experiment: as §1
[3] = substrate: OC[C@H]1O[C@H](O[C@H]2[C@@H](O)[C@H](O)[C@@H](CO)O[C@@H]2O)[C@@H](O)[C@@H](O)[C@@H]1O; experiment: (§2) Ratio of Kcat to Km for Bacteroides thetaiotaomicron GH92 alpha-mannosidase GH92 alpha-mannosidase 3990 assessed as mannose release after 16 hrs by HPLC
[4] = substrate: O=[N+]([O-])c1ccc(O[C@H]2O[C@H](CO)[C@@H](O)[C@H](O)[C@@H]2O)c([N+](=O)[O-])c1; experiment: as §2
[5] = substrate: O=[N+]([O-])c1ccc(O[C@H]2O[C@H](CO)[C@@H](O)[C@H](O)[C@@H]2O)cc1; experiment: as §2
[6] = substrate: OC[C@H]1O[C@H](O[C@H]2[C@@H](O)[C@H](O)[C@@H](CO)O[C@@H]2O)[C@@H](O)[C@@H](O)[C@@H]1O; experiment: (§3) Ratio of Kcat to Km for Bacteroides thetaiotaomicron GH92 alpha-mannosidase 3990 D644A mutant assessed as as mannose release after 16 hrs by HPLC relative to wild type enzyme
[7] = substrate: O=[N+]([O-])c1ccc(O[C@H]2O[C@H](CO)[C@@H](O)[C@H](O)[C@@H]2O)c([N+](=O)[O-])c1; experiment: as §3
[8] = substrate: O=[N+]([O-])c1ccc(O[C@H]2O[C@H](CO)[C@@H](O)[C@H](O)[C@@H]2O)cc1; experiment: as §3
[9] = substrate: OC[C@H]1O[C@H](O[C@H]2[C@@H](O)[C@H](O)[C@@H](CO)O[C@@H]2O)[C@@H](O)[C@@H](O)[C@@H]1O; experiment: (§4) Activity of Bacteroides thetaiotaomicron GH92 alpha-mannosidase 3990 D644A mutant assessed as as mannose release after 16 hrs by HPLC relative to wild type enzyme
[10] = substrate: O=[N+]([O-])c1ccc(O[C@H]2O[C@H](CO)[C@@H](O)[C@H](O)[C@@H]2O)cc1; experiment: as §4
[11] = substrate: OC[C@H]1O[C@H](O[C@H]2[C@@H](O)[C@H](O)[C@@H](CO)O[C@@H]2O)[C@@H](O)[C@@H](O)[C@@H]1O; experiment: (§5) Ratio of Kcat to Km for Bacteroides thetaiotaomicron GH92 alpha-mannosidase 3990 D644N mutant assessed as as mannose release after 16 hrs by HPLC relative to wild type enzyme
[12] = substrate: O=[N+]([O-])c1ccc(O[C@H]2O[C@H](CO)[C@@H](O)[C@H](O)[C@@H]2O)c([N+](=O)[O-])c1; experiment: as §5
[13] = substrate: O=[N+]([O-])c1ccc(O[C@H]2O[C@H](CO)[C@@H](O)[C@H](O)[C@@H]2O)cc1; experiment: as §5
[14] = substrate: OC[C@H]1O[C@H](O[C@H]2[C@@H](O)[C@H](O)[C@@H](CO)O[C@@H]2O)[C@@H](O)[C@@H](O)[C@@H]1O; experiment: (§6) Activity of Bacteroides thetaiotaomicron GH92 alpha-mannosidase 3990 D644N mutant assessed as as mannose release after 16 hrs by HPLC relative to wild type enzyme
[15] = substrate: O=[N+]([O-])c1ccc(O[C@H]2O[C@H](CO)[C@@H](O)[C@H](O)[C@@H]2O)cc1; experiment: as §6
[16] = substrate: OC[C@H]1O[C@H](O[C@H]2[C@@H](O)[C@H](O)[C@@H](CO)O[C@@H]2O)[C@@H](O)[C@@H](O)[C@@H]1O; experiment: (§7) Activity of Bacteroides thetaiotaomicron GH92 alpha-mannosidase 3990 E643A mutant assessed as as mannose release after 16 hrs by HPLC relative to wild type enzyme
[17] = substrate: O=[N+]([O-])c1ccc(O[C@H]2O[C@H](CO)[C@@H](O)[C@H](O)[C@@H]2O)cc1; experiment: as §7
[18] = substrate: OC[C@H]1O[C@H](O[C@H]2[C@@H](O)[C@H](O)[C@@H](CO)O[C@@H]2O)[C@@H](O)[C@@H](O)[C@@H]1O; experiment: (§8) Ratio of Kcat to Km for Bacteroides thetaiotaomicron GH92 alpha-mannosidase 3990 E643A mutant assessed as as mannose release after 16 hrs by HPLC relative to wild type enzyme
[19] = substrate: O=[N+]([O-])c1ccc(O[C@H]2O[C@H](CO)[C@@H](O)[C@H](O)[C@@H]2O)c([N+](=O)[O-])c1; experiment: as §8
[20] = substrate: O=[N+]([O-])c1ccc(O[C@H]2O[C@H](CO)[C@@H](O)[C@H](O)[C@@H]2O)cc1; experiment: as §8
[21] = substrate: OC[C@H]1O[C@H](O[C@H]2[C@@H](O)[C@H](O)[C@@H](CO)O[C@@H]2O)[C@@H](O)[C@@H](O)[C@@H]1O; experiment: (§9) Activity of Bacteroides thetaiotaomicron GH92 alpha-mannosidase 3990 E533Q mutant assessed as as mannose release after 16 hrs by HPLC relative to wild type enzyme
[22] = substrate: O=[N+]([O-])c1ccc(O[C@H]2O[C@H](CO)[C@@H](O)[C@H](O)[C@@H]2O)cc1; experiment: as §9
[23] = substrate: OC[C@H]1O[C@H](O[C@H]2[C@@H](O)[C@H](O)[C@@H](CO)O[C@@H]2O)[C@@H](O)[C@@H](O)[C@@H]1O; experiment: (§10) Ratio of Kcat to Km for Bacteroides thetaiotaomicron GH92 alpha-mannosidase 3990 E533Q mutant assessed as as mannose release after 16 hrs by HPLC relative to wild type enzyme
[24] = substrate: O=[N+]([O-])c1ccc(O[C@H]2O[C@H](CO)[C@@H](O)[C@H](O)[C@@H]2O)c([N+](=O)[O-])c1; experiment: as §10
[25] = substrate: O=[N+]([O-])c1ccc(O[C@H]2O[C@H](CO)[C@@H](O)[C@H](O)[C@@H]2O)cc1; experiment: as §10

B1: Alpha-1,2-mannosidase (BT_3990) (Bacteroides thetaiotaomicron), Q8A0N1 (protein)
chain: MKRLLLIACILNCTLLSQAKDWTQYVNPLMGSQSTFELSTGNTYPAIARPWGMNFWTPQTGKMGDGWQYTYTANKIRGFKQTHQPSPWINDYGQFSIMPIVGQPVFDEEKRASWFAHKGEVATPYYYKVYLAEHDIVTEMTPTERAVLFRFTFPENDHSYVVVDAFDKGSYIKIIPEENKIIGYTTRNSGGVPENFKNYFIIEFDKPFTYKATVENGNLQENVAEQTTDHAGAIIGFKTRKGEQVNARIASSFISFEQAAANMNELGKDNIEQLAQKGKDAWNQVLGKIEVEGGNLDQYRTFYSCLYRSLLFPRKFYELDANGQPIHYSPYNGQVLPGYMFTDTGFWDTFRCLFPLLNLMYPSVNKEMQEGLINTYLESGFFPEWASPGHRGCMVGNNSASILVDAYMKGVKVDDIKTLYEGLIHGTENVHPEVSSTGRLGYEYYNKLGYVPYDVKINENAARTLEYAYDDWCIYRLAKELKRPKKEISLFAKRAMNYKNLFDKESKLMRGRNEDGTFQSPFSPLKWGDAFTEGNSWHYTWSVFHDPQGLIDLMGGKEMFVTMMDSVFAVPPIFDDSYYGQVIHEIREMTVMNMGNYAHGNQPIQHMIYLYDYAGQPWKAQYWLRQVMDRMYTPGPDGYCGDEDNGQTSAWYVFSALGFYPVCPGTDEYVMGTPLFKKATLHFENGNSLVIDAPNNSTENFYIDSMSFNGADHTKNYLRHEDLFKGGTIKVDMSNRPNLNRGTKEEDMPYSFSKE
- Km [1]: 760 µM
- kcat [1]: 86.7 s⁻¹
- Km [2]: 4200 µM
- kcat [2]: 0.0933 s⁻¹
- kcat/Km [3]: 113000 M⁻¹ s⁻¹
- kcat/Km [4]: 16.7 M⁻¹ s⁻¹
- kcat/Km [5]: 21.7 M⁻¹ s⁻¹

B2: Alpha-1,2-mannosidase (BT_3990) (Bacteroides thetaiotaomicron), Q8A0N1 D644A (protein)
chain: B1 chain with D644A
- kcat/Km [6]: 1.27 M⁻¹ s⁻¹
- kcat/Km [7]: 0.0167 M⁻¹ s⁻¹
- kcat/Km [8]: Not Active
- Km [9]: 620 µM
- kcat [9]: 0.000783 s⁻¹
- Km [10]: Not Active
- kcat [10]: Not Active

B3: Alpha-1,2-mannosidase (BT_3990) (Bacteroides thetaiotaomicron), Q8A0N1 D644N (protein)
chain: B1 chain with D644N
- kcat/Km [11]: 0.533 M⁻¹ s⁻¹
- kcat/Km [12]: 0.567 M⁻¹ s⁻¹
- kcat/Km [13]: Not Active
- Km [14]: 720 µM
- kcat [14]: 0.000383 s⁻¹
- Km [15]: Not Active
- kcat [15]: Not Active

B4: Alpha-1,2-mannosidase (BT_3990) (Bacteroides thetaiotaomicron), Q8A0N1 E643A (protein)
chain: B1 chain with E643A
- Km [16]: Not Active
- kcat [16]: Not Active
- Km [17]: Not Active
- kcat [17]: Not Active
- kcat/Km [18]: 13.2 M⁻¹ s⁻¹
- kcat/Km [19]: 0.25 M⁻¹ s⁻¹
- kcat/Km [20]: Not Active

B5: Alpha-1,2-mannosidase (BT_3990) (Bacteroides thetaiotaomicron), Q8A0N1 E533Q (protein)
chain: B1 chain with E533Q
- Km [21]: 960 µM
- kcat [21]: 0.000233 s⁻¹
- Km [22]: 10000 µM
- kcat [22]: 0.147 s⁻¹
- kcat/Km [23]: 0.25 M⁻¹ s⁻¹
- kcat/Km [24]: 10300 M⁻¹ s⁻¹
- kcat/Km [25]: 14.3 M⁻¹ s⁻¹
